Source: patent US20140200179A1
Several values for one entry are separate records, joined by “and”; a condition that tells them apart may be missing. Equal values may be shown once.

Target: Fz-CRD (biotinylated Fz5- and Fz8-CRD)
Test: SPR, biotinylated Fz5- and Fz8-CRD on the chip, mini-Xwnt8 flowed over at several concentrations

## mini-XWnt8 (amino acid residues 248-338) (from UniProt P28026) (ligand)
  Kd: 1000 nM and 2000 nM
